Measurements as given in PMC9646525, “Cryo-EM structure of the SEA complex” (Nature, 2022).

Biological target: T1, Sea4-TAP (S. cerevisiae (endogenous in yeast …, UniProt P38164 1-1038))
T1 construct: Sea4, S. cerevisiae, endogenous subunit of the SEAC (SEACAT, core), TAP-tagged; Captured by the TAP tag on IgG beads; the complex was released with TEV protease before SDS-PAGE and cryo-EM; Written 'Sea4-TAP'; Four copies in the SEAC; source: endogenous, yeast cells expressing Sea4-TAP; in lysate, purified on IgG-coupled Dynabeads and eluted with TEV protease
T1 sequence (looked up): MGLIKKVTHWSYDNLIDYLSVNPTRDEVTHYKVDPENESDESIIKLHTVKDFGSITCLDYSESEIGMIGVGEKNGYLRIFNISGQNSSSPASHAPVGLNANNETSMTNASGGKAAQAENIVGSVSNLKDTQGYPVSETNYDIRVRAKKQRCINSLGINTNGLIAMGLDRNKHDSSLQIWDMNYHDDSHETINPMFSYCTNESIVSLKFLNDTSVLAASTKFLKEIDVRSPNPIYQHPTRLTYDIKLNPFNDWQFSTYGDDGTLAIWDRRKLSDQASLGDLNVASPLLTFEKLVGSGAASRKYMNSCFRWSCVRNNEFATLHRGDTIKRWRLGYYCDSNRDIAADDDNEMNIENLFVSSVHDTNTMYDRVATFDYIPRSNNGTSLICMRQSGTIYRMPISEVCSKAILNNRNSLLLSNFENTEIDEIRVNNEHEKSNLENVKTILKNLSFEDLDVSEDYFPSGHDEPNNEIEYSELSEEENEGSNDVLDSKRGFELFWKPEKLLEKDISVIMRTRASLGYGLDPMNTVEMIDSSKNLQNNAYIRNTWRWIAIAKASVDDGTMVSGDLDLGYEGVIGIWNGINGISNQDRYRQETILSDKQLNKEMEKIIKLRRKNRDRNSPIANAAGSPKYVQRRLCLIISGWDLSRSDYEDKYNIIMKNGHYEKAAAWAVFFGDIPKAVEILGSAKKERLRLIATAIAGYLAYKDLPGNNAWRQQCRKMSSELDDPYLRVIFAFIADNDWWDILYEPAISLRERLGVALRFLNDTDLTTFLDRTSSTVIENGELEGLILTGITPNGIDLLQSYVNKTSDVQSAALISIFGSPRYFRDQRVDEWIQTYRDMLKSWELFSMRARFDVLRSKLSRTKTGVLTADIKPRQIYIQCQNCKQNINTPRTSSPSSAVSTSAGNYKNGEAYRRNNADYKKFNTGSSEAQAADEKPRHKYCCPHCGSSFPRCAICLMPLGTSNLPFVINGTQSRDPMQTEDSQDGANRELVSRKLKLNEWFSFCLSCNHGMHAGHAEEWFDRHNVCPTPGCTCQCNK
Assay: cryo-EM structure; endogenous SEAC purified from yeast via Sea4-TAP (IgG Dynabeads, TEV elution in 20 mM HEPES-NaOH pH 7.4, 300 mM NaCl, 2 mM DTT), on graphene-oxide-coated grids
Conditions: both partners purified

B1: Seh1 (natural protein, UniProt P53011 1-349, looked up)
chain: MQPFDSGHDDLVHDVVYDFYGRHVATCSSDQHIKVFKLDKDTSNWELSDSWRAHDSSIVAIDWASPEYGRIIASASYDKTVKLWEEDPDQEECSGRRWNKLCTLNDSKGSLYSVKFAPAHLGLKLACLGNDGILRLYDALEPSDLRSWTLTSEMKVLSIPPANHLQSDFCLSWCPSRFSPEKLAVSALEQAIIYQRGKDGKLHVAAKLPGHKSLIRSISWAPSIGRWYQLIATGCKDGRIRIFKITEKLSPLASEESLTNSNMFDNSADVDMDAQGRSDSNTEEKAELQSNLQVELLSEHDDHNGEVWSVSWNLTGTILSSAGDDGKVRLWKATYSNEFKCMSVITAQQ
notes: Seh1, S. cerevisiae, endogenous subunit of the SEAC (SEACAT, core); Native protein of the purified complex; six copies in the SEAC; source: endogenous, yeast cells expressing Sea4-TAP; in lysate and co-purified with Sea4-TAP (IgG Dynabeads, TEV elution)
Q: Does B1 bind?
A: binds
